Measured values: the RNAGym collection of RNA variant scans (doi:10.7554/elife.80360)

B1: Hammerhead Ribozyme (parent)
chain: ACCGGAUGUGCUUUCCGGUCUGAUGAGUCCGUGAGGACGAAACAG

Variants of: B1
Test: self-cleavage, relative activity (ratio to wild type); higher = more cleavage; co-transcriptional

In order of rising self-cleavage:
1. ACCGGAUGUGCUUUCCGGUCUGAUGAGUCCGUGGGCACGAAACAG [A34G G36C]  0.276
2. ACCGGAUGUGCUUUCCGGUCUGAUGAGUCCGUGGGGACGAUACAG [A34G A41U]  0.284
3. ACCGGAUGUGCUUUCCGGUCUGAUGAGUCCGUGGGGACAAAACAG [A34G G39A]  0.288
4. ACCGGAUGUGCUUUCCGGUCUGAUGAGUCCGUGGGGACGAACCAG [A34G A42C]  0.294
5. ACCGGAUGUGCUUUCCGGUCUGAUGAGUCCGUGGGGACGACACAG [A34G A41C]  0.302
6. ACCGGAUGUGCUUUCCGGUCUGAUGAGUCCGUGGGGACUAAACAG [A34G G39U]  0.308
7. ACCGGAUGUGCUUUCCGGUCUGAUGAGUCCGUGCGGACGCAACAG [A34C A40C]  0.316
8. ACCGGAUGUGCUUUCCGGUCUGAUGAGUCCGUGGGGACGAAAAAG [A34G C43A]  0.32
9. ACCGGAUGUGCUUUCCGGUCUGAUGAGUCCGUGCGGACGGAACAG [A34C A40G]  0.334
10. ACCGGAUGUGCUUUCCGGUCUGAUGAGUCCGUCAGUACGAAACAG [G33C G36U]  0.338
11. ACCGGAUGUGCUUUCCGGUCUGAUGAGUCCGUGGGGACCAAACAG [A34G G39C]  0.338
12. ACCGGAUGUGCUUUCCGGUCUGAUGAGUCCGUGGGGACGAGACAG [A34G A41G]  0.339
13. ACCGGAUGUGCUUUCCGGUCUGAUGAGUCCGUGCGAACGAAACAG [A34C G36A]  0.345
14. ACCGGAUGUGCUUUCCGGUCUGAUGAGUCCGUGGGGAAGAAACAG [A34G C38A]  0.349
15. ACCGGAUGUGCUUUCCGGUCUGAUGAGUCCGUUAGGACGAGACAG [G33U A41G]  0.354
16. ACCGGAUGUGCUUUCCGGUCUGAUGAGUCCGUUAGGACGAUACAG [G33U A41U]  0.361
17. ACCGGAUGUGCUUUCCGGUCUGAUGAGUCCGUUAGGACGACACAG [G33U A41C]  0.375
18. ACCGGAUGUGCUUUCCGGUCUGAUGAGUCCGUUAGGACGUAACAG [G33U A40U]  0.391
19. ACCGGAUGUGCUUUCCGGUCUGAUGAGUCCGUGGGGACGAAAUAG [A34G C43U]  0.393
20. ACCGGAUGUGCUUUCCGGUCUGAUGAGUCCGUGCCGACGAAACAG [A34C G35C]  0.398
21. ACCGGAUGUGCUUUCCGGUCUGAUGAGUCCGUUAGGACGGAACAG [G33U A40G]  0.4
22. ACCGGAUGUGCUUUCCGGUCUGAUGAGUCCGUGGGGACGAAACCG [A34G A44C]  0.41
23. ACCGGAUGUGCUUUCCGGUCUGAUGAGUCCGUGCGCACGAAACAG [A34C G36C]  0.419
24. ACCGGAUGUGCUUUCCGGUCUGAUGAGUCCGUGGGUACGAAACAG [A34G G36U]  0.419
25. ACCGGAUGUGCUUUCCGGUCUGAUGAGUCCGUGCGGACGUAACAG [A34C A40U]  0.419
26. ACCGGAUGUGCUUUCCGGUCUGAUGAGUCCGUGCGGCCGAAACAG [A34C A37C]  0.426
27. ACCGGAUGUGCUUUCCGGUCUGAUGAGUCCGUGCGUACGAAACAG [A34C G36U]  0.437
28. ACCGGAUGUGCUUUCCGGUCUGAUGAGUCCGUGCGGUCGAAACAG [A34C A37U]  0.444
29. ACCGGAUGUGCUUUCCGGUCUGAUGAGUCCGUCAGCACGAAACAG [G33C G36C]  0.451
30. ACCGGAUGUGCUUUCCGGUCUGAUGAGUCCGUGGGGUCGAAACAG [A34G A37U]  0.47
31. ACCGGAUGUGCUUUCCGGUCUGAUGAGUCCGUGGGGACGAAAGAG [A34G C43G]  0.471
32. ACCGGAUGUGCUUUCCGGUCUGAUGAGUCCGUCAGAACGAAACAG [G33C G36A]  0.491
33. ACCGGAUGUGCUUUCCGGUCUGAUGAGUCCGUGGGAACGAAACAG [A34G G36A]  0.51
34. ACCGGAUGUGCUUUCCGGUCUGAUGAGUCCGUGGGGACGAAACUG [A34G A44U]  0.526
35. ACCGGAUGUGCUUUCCGGUCUGAUGAGUCCGUGCUGACGAAACAG [A34C G35U]  0.58
36. ACCGGAUGUGCUUUCCGGUCUGAUGAGUCCGUGCGGGCGAAACAG [A34C A37G]  0.588
37. ACCGGAUGUGCUUUCCGGUCUGAUGAGUCCGUGGGGAGGAAACAG [A34G C38G]  0.598
38. ACCGGAUGUGCUUUCCGGUCUGAUGAGUCCGUUAGUACGAAACAG [G33U G36U]  0.618
39. ACCGGAUGUGCUUUCCGGUCUGAUGAGUCCGUUAGCACGAAACAG [G33U G36C]  0.623
40. ACCGGAUGUGCUUUCCGGUCUGAUGAGUCCGUGGGGGCGAAACAG [A34G A37G]  0.649
41. ACCGGAUGUGCUUUCCGGUCUGAUGAGUCCGUGGGGCCGAAACAG [A34G A37C]  0.649
42. ACCGGAUGUGCUUUCCGGUCUGAUGAGUCCGUUAGGAGGAAACAG [G33U C38G]  0.67
43. ACCGGAUGUGCUUUCCGGUCUGAUGAGUCCGUUAGGACGAAACAA [G33U G45A]  0.698
44. ACCGGAUGUGCUUUCCGGUCUGAUGAGUCCGUCAAGACGAAACAG [G33C G35A]  0.701
45. ACCGGAUGUGCUUUCCGGUCUGAUGAGUCCGUUAGGACGCAACAG [G33U A40C]  0.726
46. ACCGGAUGUGCUUUCCGGUCUGAUGAGUCCGUUAGGACGAAACAC [G33U G45C]  0.752
47. ACCGGAUGUGCUUUCCGGUCUGAUGAGUCCGUUAGAACGAAACAG [G33U G36A]  0.765
48. ACCGGAUGUGCUUUCCGGUCUGAUGAGUCCGUCAUGACGAAACAG [G33C G35U]  0.795
49. ACCGGAUGUGCUUUCCGGUCUGAUGAGUCCGUUAGGAAGAAACAG [G33U C38A]  0.824
50. ACCGGAUGUGCUUUCCGGUCUGAUGAGUCCGUCACGACGAAACAG [G33C G35C]  0.858
51. ACCGGAUGUGCUUUCCGGUCUGAUGAGUCCGUGCAGACGAAACAG [A34C G35A]  0.893
52. ACCGGAUGUGCUUUCCGGUCUGAUGAGUCCGUGGGGACGAAACAG [A34G]  0.902
53. ACCGGAUGUGCUUUCCGGUCUGAUGAGUCCGUGCGGACGAAACAG [A34C]  0.909
54. ACCGGAUGUGCUUUCCGGUCUGAUGAGUCCGUUAGGACGAAACAU [G33U G45U]  0.912
55. ACCGGAUGUGCUUUCCGGUCUGAUGAGUCCGUUAGGAUGAAACAG [G33U C38U]  0.995
56. ACCGGAUGUGCUUUCCGGUCUGAUGAGUCCGUGGGGAUGAAACAG [A34G C38U]  1.13
57. ACCGGAUGUGCUUUCCGGUCUGAUGAGUCCGUGGGGACGAAACGG [A34G A44G]  1.23
